Literature values, collected in article PMC7788954.

Biological target: Sans SAM-PBM (Homo sapiens) (UniProt Q495M9)
Sequence (Q495M9 388-461): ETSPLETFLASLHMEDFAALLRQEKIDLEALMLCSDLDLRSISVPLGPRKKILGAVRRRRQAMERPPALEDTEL

Sequence of harmonin N-terminal HHD-containing supramodule (Q9Y6N9 1-192): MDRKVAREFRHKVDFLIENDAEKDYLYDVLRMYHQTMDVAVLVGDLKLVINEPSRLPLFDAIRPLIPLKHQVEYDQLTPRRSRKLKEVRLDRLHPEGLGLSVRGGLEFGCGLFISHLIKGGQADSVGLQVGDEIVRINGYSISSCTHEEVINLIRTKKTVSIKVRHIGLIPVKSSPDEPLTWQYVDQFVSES

harmonin N-terminal HHD-containing supramodule (from UniProt Q9Y6N9)
Kd: 1 nM
